Experimental data as given in US20210163923A1 (IONTAS, published 2021).

B1: Emicizumab (bi-specific, displayed from pINT17-Bi-CMV-Emicizumab) (bispecific antibody, human IgG4 S228P)
light: DIQMTQSPSSLSASVGDRVTITCKASRNIERQLAWYQQKPGQAPELLIYQASRKESGVPDRFSGSRYGTDFTLTISSLQPEDIATYYCQQYSDPPLTFGGGTKVEIKRTAAAPSVFIFPPSDEQLKSGTASVVCLLNNFYPREAKVQWKVDNALQSGNSQESVTEQDSKDSTYSLSSTLTLSKADYEKHKVYACEVTHQGLSSPVTKSFNRGEC
heavy 1: QVQLVESGGGLVQPGGSLRLSCAASGFTFSYYDIQWVRQAPGKGLEWVSSISPSGQSTYYRREVKGRFTISRDNSKNTLYLQMNSLRAEDTAVYYCARRTGREYGGGWYFDYWGQGTLVTVSSASTKGPSVFPLAPCSRSTSESTAALGCLVKDYFPEPVTVSWNSGALTSGVHTFPAVLQSSGLYSLSSVVTVPSSSLGTQTYTCNVDHKPSNTKVDKRVESKYGPPCPPCPAPEFLGGPSVFLFPPKPKDTLMISRTPEVTCVVVDVSQEDPEVQFNWYVDGVEVHNAKTKPREEQYNSTYRVVSVLTVLHQDWLNGKEYKCKVSNKGLPSSIEKTISKAKGQPREPQVYTLPPSQKEMTKNQVSLTCLVKGFYPSDIAVEWESNGQPENNYKTTPPVLDSDGSFFLYSKLTVDKSRWQEGNVFSCSVMHEALHNRYTQKSLSLSPEQKLISEEDLNAVGQDTQEVIVVPHSLPFKVVVISAILALVVLTIISLIILIMLWQKKPR
heavy 2: QVQLVQSGSELKKPGASVKVSCKASGYTFTDNNMDWVRQAPGQGLEWMGDINTRSGGSIYNEEFQDRVIMTVDKSTDTAYMELSSLRSEDTATYHCARRKSYGYYLDEWGEGTLVTVSSASTKGPSVFPLAPCSRSTSESTAALGCLVKDYFPEPVTVSWNSGALTSGVHTFPAVLQSSGLYSLSSVVTVPSSSLGTQTYTCNVDHKPSNTKVDKRVESKYGPPCPPCPAPEFLGGPSVFLFPPKPKDTLMISRTPEVTCVVVDVSQEDPEVQFNWYVDGVEVHNAKTKPREEQYNSTYRVVSVLTVLHQDWLNGKEYKCKVSNKGLPSSIEKTISKAKGQPREPQVYTLPPSQEEMTKNQVSLTCLVKGFYPSDIAVEWESNGQPENNYKTTPPVLDSDGSFFLYSKLTVDKSRWQEGNVFSCSVMHEALHNHYTQESLSLSPEQKLISEEDLNAVGQDTQEVIVVPHSLPFKVVVISAILALVVLTIISLIILIMLWQKKPR
notes: also called bi-specific Emicizumab; knobs-into-holes common light chain IgG
B2: mono-specific anti-FIXa IgG (Emicizumab anti-FIXa VH with Emicizumab VL, pINT17-BSD-anti-FIXa) (antibody, V domains shown)
VH: QVQLVESGGGLVQPGGSLRLSCAASGFTFSYYDIQWVRQAPGKGLEWVSSISPSGQSTYYRREVKGRFTISRDNSKNTLYLQMNSLRAEDTAVYYCARRTGREYGGGWYFDYWGQGTLVTVSS
VL: DIQMTQSPSSLSASVGDRVTITCKASRNIERQLAWYQQKPGQAPELLIYQASRKESGVPDRFSGSRYGTDFTLTISSLQPEDIATYYCQQYSDPPLTFGGGTKVEIK
notes: also called mono-specific anti-FIXa arm in IgG format
B3: Ustekinumab (antibody, V domains shown)
VH: EVQLVQSGAEVKKPGESLKISCKGSGYSFTTYWLGWVRQMPGKGLDWIGIMSPVDSDIRYSPSFQGQVTMSVDKSITTAYLQWNSLKASDTAMYYCARRRPGQGYFDFWGQGTLVTVS
VL: DIQMTQSPSSLSASVGDRVTITCRASQGISSWLAWYQQKPEKAPKSLIYAASSLQSGVPSRFSGSGSGTDFTLTISSLQPEDFATYYCQQYNIYPYTFGQGTKLEIKR
notes: Anti-IL12 antibody; also called Ustenkinumab; Ustenikumab
B4: 337_1_C08 (antibody, V domains shown)
VH: EVQLVQSGAEVKRPGASVTVSCKASGYTFTNHGISWVRQAPGQGLEWMGWNSPYNGNTNYAQRFQGRVTMTTDTSTNTAYMELRTLTSDDTAMYYCARDRDYYDAGSYWGQGTLVTVSS
VL: SYELTQPPSVSVSPGQTARITCSGDSLPKQYAYWYQQKPGQAPVLVIYKDSERPSGIPERFSGSGSGTTVTLTISGVQAEDEADYYCQSADSDNAFVFGRGTKLTVL
notes: Anti-PD1 antibody identified by phage display; also called anti-PD1 antibody 337_1_C08; 337_C08

Columns and labels:
[1] = target: T1, unconjugated streptavidin-PE (UniProt P22629 37-163, limits assumed, phycoerythrin conjugate); experiment: flow cytometry of HEK293 cells 24 hours after transfection, stained with streptavidin-PE alone [panel Streptavidin PE]
T1 construct: Control staining reagent; also called streptavidin-PE alone

[2] = target: T1, unconjugated streptavidin-PE; experiment: flow cytometry of HEK293 cells displaying the IgG, stained with streptavidin PE alone
[3] = target: T2, PD-1 (UniProt Q15116 25-167, biotinylated in the MACS experiments); experiment: surface plasmon resonance (SPR)
T2 construct: The catalogue number points to a human PD-1 reagent; also called biotinylated PD1 (PD1-H82E4, AcroBiosystems); PD-1-biotin
T2 sequence (Q15116 25-167 limits assumed): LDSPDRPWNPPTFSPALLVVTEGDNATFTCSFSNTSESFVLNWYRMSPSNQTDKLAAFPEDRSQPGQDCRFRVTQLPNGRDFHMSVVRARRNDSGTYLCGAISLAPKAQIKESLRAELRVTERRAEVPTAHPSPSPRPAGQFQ

T1 sequence (P22629 37-163 limits assumed): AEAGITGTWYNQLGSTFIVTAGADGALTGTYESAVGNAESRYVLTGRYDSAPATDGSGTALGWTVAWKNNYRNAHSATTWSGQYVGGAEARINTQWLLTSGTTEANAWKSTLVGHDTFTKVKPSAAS

Binder | binding result [1] | also measured
B1 | no binding | 
B2 | no binding | 
B3 |  | binding result [2]: no binding
B4 |  | Kd [3]: 74 nM
